According to EP4682169A1 (Gracell Biotechnologies (Shanghai) Co., Ltd., dated 2026):
“And” between values parts separate entries of the source, which are not always exact repeats. Equal values may be shown once.

What was measured:
[1] = target: T1, human Claudin18.2 expressed on cells (human, UniProt P56856-2 1-261); assay: phage flow cytometry, phage supernatant, PE anti-M13
T1 construct: whole, on cells; also called CLDN18.2

[2] = target: T1, human Claudin18.2 expressed on cells; assay: flow cytometry on 293FT CLDN18.2-Luc cells, APC anti-mouse IgG Fc
[3] = target: T2, Human Claudin-18.2 protein (human, UniProt P56856-2 1-261, limits assumed); assay: SPR (Biacore 8K), antibody captured on Protein A, Claudin-18.2 protein as analyte
T2 construct: Soluble analyte injected over captured antibodies in SPR

Claudin 18.2 VLP [4] = target: T3, Claudin 18.2 VLP (UniProt P56856 1-261); assay: ELISA, coated antigen 200 ng/well
T3 construct: Antigen coated on ELISA plates, 200 ng/well; source and construct not described; also called Claudin18.2-VLP protein; Claudin18.2 VLP antigen

[5] = target: T4, Claudin18.2 recombinant protein (His tag) (UniProt P56856-2 1-261, limits assumed); assay: ELISA, coated antigen 200 ng/well
T4 construct: also called Claudin18.2-his antigen; not shown: His tag

Claudin 18.2 VLP [6] = target: T3, Claudin 18.2 VLP; assay: ELISA, coated antigen 200 ng/well; antibody 0.37 ug/mL
[7] = target: T4, Claudin18.2 recombinant protein (His …); assay: as above
Claudin 18.2 VLP [8] = target: T3, Claudin 18.2 VLP; assay: ELISA, coated antigen 200 ng/well; antibody 0.014 ug/mL
[9] = target: T4, Claudin18.2 recombinant protein (His …); assay: as above
Claudin 18.2 VLP [10] = target: T3, Claudin 18.2 VLP; assay: ELISA, coated antigen 200 ng/well; antibody 0.041 ug/mL
[11] = target: T4, Claudin18.2 recombinant protein (His …); assay: as above
Claudin 18.2 VLP [12] = target: T3, Claudin 18.2 VLP; assay: ELISA, coated antigen 200 ng/well; antibody 0.123 ug/mL
[13] = target: T4, Claudin18.2 recombinant protein (His …); assay: as above
Claudin 18.2 VLP [14] = target: T3, Claudin 18.2 VLP; assay: ELISA, coated antigen 200 ng/well; antibody 1.111 ug/mL
[15] = target: T4, Claudin18.2 recombinant protein (His …); assay: as above
Claudin 18.2 VLP [16] = target: T3, Claudin 18.2 VLP; assay: ELISA, coated antigen 200 ng/well; antibody 3.333 ug/mL
[17] = target: T4, Claudin18.2 recombinant protein (His …); assay: as above
Claudin 18.2 VLP [18] = target: T3, Claudin 18.2 VLP; assay: ELISA, coated antigen 200 ng/well; antibody 100 ug/mL (so in the source)
Claudin 18.2 VLP [19] = target: T3, Claudin 18.2 VLP; assay: ELISA, coated antigen 200 ng/well; antibody 0 ug/mL (blank well, background)
[20] = target: T4, Claudin18.2 recombinant protein (His …); assay: as above
[21] = target: T4, Claudin18.2 recombinant protein (His …); assay: ELISA, coated antigen 200 ng/well; antibody 100 ug/mL (so in the source)
[22] = target: T4, Claudin18.2 recombinant protein (His …); assay: ELISA, coated antigen; upper end, tied by Table 3 to 1-hIgG1Fc on Claudin 18.2-his (196 nM)
Claudin 18.2 VLP [23] = target: T3, Claudin 18.2 VLP; assay: ELISA, coated antigen; lower end, tied by Table 3 to 10-hIgG1Fc on the VLP (4.96 nM)

B1: VHH clone 14 (phage-displayed) (VHH)
VHH: EVQLVESGGGLVQPGGSLRLSCAASGSLFSIITMGWYRQAPGKQRELVATVTRGGRLNYGDSVKGRFTISSGNVENTLDLQMNNLKPEDTAVYYCNAILESGNFWGRGTQVTVSS
notes: Tested as phage supernatant, detected with PE anti-M13; also called Clone ID 14
[1]
  binding result: binds

B2: VHH clone 11 (phage-displayed) (VHH)
VHH: QVQLVESGGGLVQPGGSLRLSCAASGNILSINYMGWYRQAPGKERELVAIITRGGSTTYAPSLKGRFTISGDNAKDTVYLQMNSLQPEDTAVYYCNFRINFGILGGLRDYWGQGTQVTVSS
notes: Tested as phage supernatant, detected with PE anti-M13; also called Clone ID 11
[1]
  binding result: binds

B3: VHH clone 3 (phage-displayed) (VHH)
VHH: QVQLVESGGGLVQAGDSVRLSCAASGQTLSNYNVAWFRQAPGKEREFVAGATWSGRITNYSDSVRGRFTISRDNAKNTVYLQMNSLGPGDTAVYHCAANSFQLGDKPGDYHYWGQGTQVTVSS
notes: Tested as phage supernatant, detected with PE anti-M13; also called Clone ID 3
[1]
  binding result: binds

B4: 5-mIgG2aFc (Fc fusion)
chain: QVQLVESGGGLVQTGGSLRLSCAASDSTFSSYIMGWFRQAPGKEREFVAGITWSGGIKDYADSVKGRFTIARDNAKNTVYLQMNSLKPEDAAIYYCAANAIQLTRRSGDYAYWGQGTQVTVSS
notes: Fusion antibody anti-Claudin18.2 VHH-mIgG2aFc; also called 5-mIgG Fc; 5-mlgG2a Fc; not shown: mouse IgG2a Fc (mIgG2aFc)
[2]
  EC50: 0.013 nM
[3]
  Kd: 3.02 nM
  koff: 0.000373 s⁻¹
  kon: 123000 M⁻¹ s⁻¹

B5: 5-hIgG1Fc (Fc fusion)
chain: QVQLVESGGGLVQTGGSLRLSCAASDSTFSSYIMGWFRQAPGKEREFVAGITWSGGIKDYADSVKGRFTIARDNAKNTVYLQMNSLKPEDAAIYYCAANAIQLTRRSGDYAYWGQGTQVTVSS
notes: VHH-hIgG1Fc recombinant antibody; also called 5-hlgG1Fc; VHH-hIgG1Fc recombinant antibody of clone 5; not shown: human IgG1 Fc (hIgG1Fc)
Claudin 18.2 VLP [4]
  EC50: 0.55 µg/mL and 6.87 nM
[5]
  EC50: 0.81 µg/mL and 10.1 nM
Claudin 18.2 VLP [6]
  absorbance at 450 nm: 0.942
[7]
  absorbance at 450 nm: 1.41
Claudin 18.2 VLP [8]
  absorbance at 450 nm: 0.274
[9]
  absorbance at 450 nm: 0.108
Claudin 18.2 VLP [10]
  absorbance at 450 nm: 0.275
[11]
  absorbance at 450 nm: 0.207
Claudin 18.2 VLP [12]
  absorbance at 450 nm: 0.39
[13]
  absorbance at 450 nm: 0.463
Claudin 18.2 VLP [14]
  absorbance at 450 nm: 1.86
[15]
  absorbance at 450 nm: 2.53
Claudin 18.2 VLP [16]
  absorbance at 450 nm: 2.14
[17]
  absorbance at 450 nm: 3.5
Claudin 18.2 VLP [18]
  absorbance at 450 nm: 2.35
Claudin 18.2 VLP [19]
  absorbance at 450 nm: 0.247
[20]
  absorbance at 450 nm: 0.057

B6: 5H1-mIgG Fc (Fc fusion)
chain: QVQLVESGGGLVQTGGSLRLSCAASDSTFSSYIMGWVRQAPGKGLEWVAGITWSGGIKDYADSVKGRFTIARDNAKNTVYLQMNSLKPEDAAIYYCAANAIQLTRRSGDYAYWGQGTQVTVSS
notes: Subclass printed only as mIgG Fc for this one; also called 5H1-mlgG Fc; H1-mlgG Fc; not shown: mouse IgG Fc (printed mIgG Fc)
[3]
  Kd: 7.21 nM
  koff: 0.000552 s⁻¹
  kon: 76600 M⁻¹ s⁻¹

B7: 5H2-mIgG2a Fc (Fc fusion)
chain: QVQLVESGGGLVQPGGSLRLSCAASDSTFSSYIMGWFRQAPGKGLEFVAGITWSGGIKDYADSVKGRFTIARDNSKNTLYLQMNSLRAEDAAVYYCAANAIQLTRRSGDYAYWGQGTLVTVSS
notes: also called 5H2-mIgG Fc; 5H2-mlgG2a Fc; not shown: mouse IgG2a Fc
[3]
  Kd: 3.32 nM
  koff: 0.000417 s⁻¹
  kon: 126000 M⁻¹ s⁻¹

B8: 8-hIgG1Fc (Fc fusion)
chain: QVQLVESGGGLVQPGGSLRLSCAASGSIFGLNFMGWWRQAPGSQRELVAIATSGGSIQYGDSVKGRFTISRDNAKNTVYLQMASLKPEDTAVYYCNVHTYDFLGRDYWGQGTQVTVSL
notes: VHH-hIgG1Fc recombinant antibody; also called 8-hlgG1 Fc; VHH-hIgG1Fc recombinant antibody of clone 8; not shown: human IgG1 Fc (hIgG1Fc)
Claudin 18.2 VLP [4]
  EC50: 0.61 µg/mL and 7.66 nM
Claudin 18.2 VLP [6]
  absorbance at 450 nm: 0.931
Claudin 18.2 VLP [8]
  absorbance at 450 nm: 0.326
Claudin 18.2 VLP [10]
  absorbance at 450 nm: 0.337
Claudin 18.2 VLP [12]
  absorbance at 450 nm: 0.474
Claudin 18.2 VLP [14]
  absorbance at 450 nm: 1.87
Claudin 18.2 VLP [16]
  absorbance at 450 nm: 2.1
Claudin 18.2 VLP [18]
  absorbance at 450 nm: 2.46
Claudin 18.2 VLP [19]
  absorbance at 450 nm: 0.289

B9: VHH clone 9 (phage-displayed) (VHH)
VHH: EVQLVESGGGLVQPGGSLRLSCAASGSIFGLNFMGWWRQAPGSQRELVAIATSGGSIQYGDSVKGRFTISRDNAKNTVYLQMANLKPEDTAVYYCNVHTYDFLGRDYWGQGTQVTVSL
notes: Tested as phage supernatant, detected with PE anti-M13; also called Clone ID 9
[1]
  binding result: binds

B10: 18-mIgG2aFc (Fc fusion)
chain: QVQLVESGGGLVQPGGSLRLSCAASGSILNLMTTGWYRQAPGKQRDLVATITFGGTTNYADAVKGRFTISRDNAKNTVYLQMNNLEPEDTAVYFCYLDYIFGFGDRRVAWDQGTQVTVSS
notes: Fusion antibody anti-Claudin18.2 VHH-mIgG2aFc; not shown: mouse IgG2a Fc (mIgG2aFc)
[2]
  EC50: 0.06 nM

B11: 1-hIgG1Fc (Fc fusion)
chain: EVQLVGSGGGLVQPGGSLRLSCAASGSILNLMTTGWYRQAPGKQRDLVATITFGGTTNYADSVKGRFTISRDKSKNTAYLQMDNLKPEDTAVYFCYADVIVGFQDRRVAWDAGTQVTVSS
notes: VHH-hIgG1Fc recombinant antibody; also called 1-hlgG1Fc; VHH-hIgG1Fc recombinant antibody of clone 1; not shown: human IgG1 Fc (hIgG1Fc)
Claudin 18.2 VLP [4]
  EC50: 1.46 µg/mL and 18.3 nM
[5]
  EC50: 15.7 µg/mL and 196 nM
Claudin 18.2 VLP [6]
  absorbance at 450 nm: 0.585
[7]
  absorbance at 450 nm: 0.216
Claudin 18.2 VLP [8]
  absorbance at 450 nm: 0.282
[9]
  absorbance at 450 nm: 0.066
Claudin 18.2 VLP [10]
  absorbance at 450 nm: 0.271
[11]
  absorbance at 450 nm: 0.07
Claudin 18.2 VLP [12]
  absorbance at 450 nm: 0.293
[13]
  absorbance at 450 nm: 0.1
Claudin 18.2 VLP [14]
  absorbance at 450 nm: 1.35
[15]
  absorbance at 450 nm: 0.473
Claudin 18.2 VLP [16]
  absorbance at 450 nm: 2.13
[17]
  absorbance at 450 nm: 1.08
Claudin 18.2 VLP [18]
  absorbance at 450 nm: 2.66
[21]
  absorbance at 450 nm: 2.36
Claudin 18.2 VLP [19]
  absorbance at 450 nm: 0.275
[20]
  absorbance at 450 nm: 0.06
[22]
  EC50: 200 nM

B12: VHH clone 4 (phage-displayed) (VHH)
VHH: EVQLVESGGGLVQPGGSLRLSCAASGQFFSLNYLAWYRQAPGSQRELIALVSSGGSTQYGDSVKGRFTISRDNAKNTVYLQMASLKPEDTAVYYCNLHTYDFLGRDYWGQGTQVTISS
notes: Tested as phage supernatant, detected with PE anti-M13; also called Clone ID 4
[1]
  binding result: binds

B13: 10-hIgG1Fc (Fc fusion)
chain: QVQLAESGGGLVQPGGSLRLSCAASGNILSINYMGWYRQAPGKERELVATITRGGTTNYQGDLKGRFIISGDNTKDTVYLQMNNLQPEDTAVYYCYFRINFGILGGLRDYWGQGTQVTVSS
notes: VHH-hIgG1Fc recombinant antibody; also called 10-hlgG1Fc; VHH-hIgG1Fc recombinant antibody of clone 10; not shown: human IgG1 Fc (hIgG1Fc)
Claudin 18.2 VLP [4]
  EC50: 0.4 µg/mL and 4.96 nM
[5]
  EC50: 4 µg/mL and 50 nM
Claudin 18.2 VLP [6]
  absorbance at 450 nm: 1.46
[7]
  absorbance at 450 nm: 0.476
Claudin 18.2 VLP [8]
  absorbance at 450 nm: 0.329
[9]
  absorbance at 450 nm: 0.063
Claudin 18.2 VLP [10]
  absorbance at 450 nm: 0.355
[11]
  absorbance at 450 nm: 0.084
Claudin 18.2 VLP [12]
  absorbance at 450 nm: 0.568
[13]
  absorbance at 450 nm: 0.172
Claudin 18.2 VLP [14]
  absorbance at 450 nm: 2.14
[15]
  absorbance at 450 nm: 1.06
Claudin 18.2 VLP [16]
  absorbance at 450 nm: 2.51
[17]
  absorbance at 450 nm: 2.15
Claudin 18.2 VLP [18]
  absorbance at 450 nm: 2.62
[21]
  absorbance at 450 nm: 3.38
Claudin 18.2 VLP [19]
  absorbance at 450 nm: 0.311
[20]
  absorbance at 450 nm: 0.054
Claudin 18.2 VLP [23]
  EC50: 4 nM

B14: 2-mIgG2aFc (Fc fusion)
chain: EVQLVESGGGLVQPGGSLRLSCAASGNILSINYMGWYRQAPGKERELVATITRGGSTNYQGNLKGRFIISGDNTKDTVYLQMNNLQPEDTAVYYCYFRINFGILGGLRDYWGQGTQVTVSS
notes: Fusion antibody anti-Claudin18.2 VHH-mIgG2aFc; also called 2-mIgG Fc; 2-mlgG2a Fc; not shown: mouse IgG2a Fc (mIgG2aFc)
[2]
  EC50: 0.02 nM
[3]
  Kd: 1.1 nM
  koff: 0.00052 s⁻¹
  kon: 471000 M⁻¹ s⁻¹
